According to paper PMC3618968 (The Journal of neuroscience : the official journal of the …, 2013):

Target: mouse PCDH15 EC1+2 (wild type) (mouse, UniProt Q99PJ1 27-259)
Assay: ITC

B1: mouse CDH23 EC1+2 (domain or fragment)
chain: QVNRLPFFTNHFFDTYLLISEDTPVGSSVTQLLARDMDNDPLVFGVSGEEASRFFAVEPDTGVVWLRQPLDRETKSEFTVEFSVSDHQGVITRKVNIQVGDVNDNAPTFHNQPYSVRIPENTPVGTPIFIVNATDPDLGAGGSVLYSFQPPSPFFAIDSARGIVTVIQELDYEVTQAYQLTVNATDQDKTRPLSTLANLAIIITD
- binding result: binds
